Assay results as given in paper PMC10908835, “Alternative low-populated conformations prompt phase transitions in polyalanine repeat expansions” (Nature Communications, 2024).

Assays:
[1] = biological target: the molecule itself; experiment: NMR 15N spin relaxation (overall correlation time against that computed for the helix); 0.5 mM 15N/13C XS20 in NMR buffer (5 mM KPi, 10 mM NaCl, 2 mM β-mercaptoethanol, pH 6.8), 5 °C, 800 MHz
[2] = biological target: the molecule itself; experiment: NMR 15N spin relaxation (overall correlation time against that computed for the helix); 0.05 and 0.5 mM XS20, 0.5 mM XS23, 0.5 mM XS26 in NMR buffer (5 mM KPi, 10 mM NaCl, 2 mM β-mercaptoethanol, pH 6.8), 25 °C, 800 MHz
[3] = biological target: T1, human HSP90β (named HSP90) (human, UniProt P08238 1-724); experiment: NMR titration; 15N-HSQC signal intensity; 0.07 mM 15N/13C XS26 with fresh 0.14 mM unlabelled HSP70 or HSP90 (1:2), 25 °C, 20 mM Hepes, 10 mM NaCl, 5 mM MgCl2, 2 mM ATP, 1 mM DTT, pH 6.8; conditions: both partners purified
T1 construct: Unlabelled in the NMR titrations

[4] = biological target: T2, human HSP72 (named HSP70) (human, UniProt P0DMV8 1-641); experiment: as above; conditions: both partners purified
T2 construct: Unlabelled in the NMR titrations; 2 mM ATP and 5 mM MgCl2 in the buffer
T2 sequence (P0DMV8 whole entry): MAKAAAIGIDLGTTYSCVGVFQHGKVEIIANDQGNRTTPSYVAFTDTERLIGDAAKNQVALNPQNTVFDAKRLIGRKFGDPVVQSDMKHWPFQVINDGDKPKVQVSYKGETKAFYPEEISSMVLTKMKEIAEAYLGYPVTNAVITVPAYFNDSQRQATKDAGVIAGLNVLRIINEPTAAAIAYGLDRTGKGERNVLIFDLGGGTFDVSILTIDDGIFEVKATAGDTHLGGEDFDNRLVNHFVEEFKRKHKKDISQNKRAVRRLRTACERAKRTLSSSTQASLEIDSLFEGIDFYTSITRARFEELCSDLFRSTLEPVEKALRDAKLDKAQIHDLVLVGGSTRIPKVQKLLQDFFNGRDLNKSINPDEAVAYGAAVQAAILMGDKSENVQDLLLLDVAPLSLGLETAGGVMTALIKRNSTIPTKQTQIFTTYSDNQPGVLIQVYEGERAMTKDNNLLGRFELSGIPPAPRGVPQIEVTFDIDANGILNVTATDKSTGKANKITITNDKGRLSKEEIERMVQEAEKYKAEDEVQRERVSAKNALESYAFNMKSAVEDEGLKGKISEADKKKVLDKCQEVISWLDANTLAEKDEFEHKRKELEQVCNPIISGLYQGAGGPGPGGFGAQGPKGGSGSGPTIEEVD

T1 sequence (P08238 whole entry): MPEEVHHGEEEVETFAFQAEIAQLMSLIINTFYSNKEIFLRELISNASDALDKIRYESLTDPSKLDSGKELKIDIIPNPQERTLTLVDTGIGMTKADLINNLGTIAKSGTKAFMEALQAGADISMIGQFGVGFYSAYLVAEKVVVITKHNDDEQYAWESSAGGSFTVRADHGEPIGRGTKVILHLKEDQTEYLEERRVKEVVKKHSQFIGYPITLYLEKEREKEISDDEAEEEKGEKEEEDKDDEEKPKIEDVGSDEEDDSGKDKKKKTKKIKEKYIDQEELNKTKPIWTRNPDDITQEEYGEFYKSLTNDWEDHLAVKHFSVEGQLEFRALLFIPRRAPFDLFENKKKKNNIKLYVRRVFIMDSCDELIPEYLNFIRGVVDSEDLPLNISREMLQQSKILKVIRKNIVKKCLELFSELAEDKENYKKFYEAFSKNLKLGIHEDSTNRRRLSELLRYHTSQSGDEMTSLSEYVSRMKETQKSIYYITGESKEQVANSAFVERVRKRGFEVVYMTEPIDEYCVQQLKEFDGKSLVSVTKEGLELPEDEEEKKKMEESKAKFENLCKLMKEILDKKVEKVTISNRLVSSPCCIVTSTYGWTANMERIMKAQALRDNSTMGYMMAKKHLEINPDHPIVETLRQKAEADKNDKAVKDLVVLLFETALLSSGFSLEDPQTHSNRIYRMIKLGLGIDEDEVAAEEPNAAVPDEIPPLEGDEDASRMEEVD

B1: human PHOX2B fragment 228-314 (XS20) (domain or fragment, UniProt Q99453 228-314, looked up)
chain: GPGGPGGEPGKGGAAAAAAAAAAAAAAAAAAAAGGLAAAGGPGQGWAPGPGPITSIPDSLGGPFASVLSSLQRPNGAKAALVKSSMF
notes: Paired mesoderm homeobox protein 2B (PHOX2B), human, residues 228-314, holds the 20-alanine tract (residues 241-260); 15N/13C-labelled for NMR; also called PHOX2B C-terminal fragment; wild-type PHOX2B; not shown: Thioredoxin, N-terminal, cleaved; His6, N-terminal, cleaved
binding result [1]: binds

B2: human PHOX2B fragment 228-314 with a +3 Ala expansion (XS23) (domain or fragment, UniProt Q99453 228-314, looked up)
chain: GPGGPGGEPGKGGAAAAAAAAAAAAAAAAAAAAAAAGGLAAAGGPGQGWAPGPGPITSIPDSLGGPFASVLSSLQRPNGAKAALVKSSMF
notes: PHOX2B, human, residues 228-314 (wild-type numbering) with 3 alanines added to the 20-alanine tract (241-260); Made by mutagenic PCR; 15N/13C-labelled for NMR; also called +3 Ala variant; +3 PARM; not shown: Thioredoxin, N-terminal, cleaved; His6, N-terminal, cleaved
binding result [2]: binds

B3: human PHOX2B fragment 228-314 with a +6 Ala expansion (XS26) (domain or fragment, UniProt Q99453 228-314, looked up)
chain: GPGGPGGEPGKGGAAAAAAAAAAAAAAAAAAAAAAAAAAGGLAAAGGPGQGWAPGPGPITSIPDSLGGPFASVLSSLQRPNGAKAALVKSSMF
notes: Made by mutagenic PCR; 15N/13C-labelled for NMR titrations; also called +6 Ala variant; expanded PHOX2B; not shown: Thioredoxin, N-terminal, cleaved; His6, N-terminal, cleaved
binding result [3]: binds
binding result [4]: binds
binding result [2]: binds
